The results in this text go back to patent US20230272110A1 (LAVA THERAPEUTICS N V, published 2023).

Experiment [1] has as its target T1, human PSMA on PSMA-positive prostate cancer cells (LNCaP, 22Rv1, VCaP, patient-derived tumor cells) (human, UniProt Q04609 1-750). Nature of the experiment: cell-based or functional assay.
The target in experiment [2] is T1, human PSMA on PSMA-positive prostate …. Nature of the experiment: cell-based or functional assay. The source holds these as a separate data set.
Experiment [3] shares this target. Briefly: cell-based or functional assay. This is another data set of the same source.
The target is the same in experiment [4]. Nature of the experiment: FACS on PSMA-positive LNCaP cells, detection with polyclonal anti-human IgG.
Description: To test the binding of the molecule to PSMA, a concentration range of antibody was tested for binding to the PSMA positive prostate cancer cell line LNCaP and to the antigen negative cell line PC-3. Detection was performed with a polyclonal anti-human IgG antibody.
For experiment [5], the target named is recombinant human PSMA, biotinylated (hPSMA) (human, UniProt Q04609 44-750, biotinylated (site not stated)). Nature of the experiment: BLI, biotinylated hPSMA on streptavidin biosensors, antibody as analyte 3.125-200 nM; mean of n = 3, SD 1.24E-09. For orientation: In BLI a coated tip is dipped into the sample, and binding shifts an interference pattern.
Sequence of recombinant human PSMA, biotinylated (hPSMA) (Q04609 44-750 limits assumed): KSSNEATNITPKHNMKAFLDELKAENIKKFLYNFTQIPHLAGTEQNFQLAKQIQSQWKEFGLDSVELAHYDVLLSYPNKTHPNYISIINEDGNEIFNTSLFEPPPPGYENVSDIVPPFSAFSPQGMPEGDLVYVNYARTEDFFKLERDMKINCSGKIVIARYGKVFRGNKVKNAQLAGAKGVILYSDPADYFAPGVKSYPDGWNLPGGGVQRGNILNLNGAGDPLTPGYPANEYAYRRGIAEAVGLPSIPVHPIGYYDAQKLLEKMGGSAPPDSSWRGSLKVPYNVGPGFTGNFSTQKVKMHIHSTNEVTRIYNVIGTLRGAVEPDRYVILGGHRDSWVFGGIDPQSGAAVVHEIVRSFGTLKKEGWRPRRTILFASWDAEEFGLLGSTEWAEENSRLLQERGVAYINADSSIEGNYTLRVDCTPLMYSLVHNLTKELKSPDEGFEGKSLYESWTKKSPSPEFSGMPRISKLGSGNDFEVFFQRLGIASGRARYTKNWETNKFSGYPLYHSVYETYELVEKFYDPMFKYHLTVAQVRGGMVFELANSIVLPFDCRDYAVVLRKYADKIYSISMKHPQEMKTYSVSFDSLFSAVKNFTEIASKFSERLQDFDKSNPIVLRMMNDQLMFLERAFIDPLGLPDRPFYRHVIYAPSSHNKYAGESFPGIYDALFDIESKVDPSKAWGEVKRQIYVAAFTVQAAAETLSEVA

T1 sequence (Q04609 whole entry): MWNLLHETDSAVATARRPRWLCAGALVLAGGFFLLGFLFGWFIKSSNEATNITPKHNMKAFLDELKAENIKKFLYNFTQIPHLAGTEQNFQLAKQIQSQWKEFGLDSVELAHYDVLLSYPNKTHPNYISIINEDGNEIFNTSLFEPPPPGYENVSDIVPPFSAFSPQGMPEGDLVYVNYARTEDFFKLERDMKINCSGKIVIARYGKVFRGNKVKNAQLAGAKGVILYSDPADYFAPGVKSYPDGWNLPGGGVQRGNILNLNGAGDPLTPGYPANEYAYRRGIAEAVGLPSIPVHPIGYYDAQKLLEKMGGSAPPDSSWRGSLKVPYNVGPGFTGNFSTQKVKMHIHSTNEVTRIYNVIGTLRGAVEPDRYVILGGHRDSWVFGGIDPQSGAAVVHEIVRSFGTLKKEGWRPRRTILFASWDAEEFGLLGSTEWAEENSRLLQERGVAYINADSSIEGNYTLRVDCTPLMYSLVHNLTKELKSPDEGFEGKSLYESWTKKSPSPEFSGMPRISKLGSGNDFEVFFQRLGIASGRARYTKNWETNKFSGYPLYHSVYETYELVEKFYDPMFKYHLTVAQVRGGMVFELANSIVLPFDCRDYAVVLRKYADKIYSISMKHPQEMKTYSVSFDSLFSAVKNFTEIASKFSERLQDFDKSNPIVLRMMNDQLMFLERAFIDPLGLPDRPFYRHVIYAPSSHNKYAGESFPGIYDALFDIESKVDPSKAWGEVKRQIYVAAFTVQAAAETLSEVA

B1: LV1044-5C8 (bispecific antibody)
chain: EVQLVESGGGLVQPGGSLTLSCAASRFMISEYSMHWVRQAPGKGLEWVSTINPAGTTDYAESVKGRFTISRDNAKNTLYLQMNSLKPEDTAVYYCDGYGYRGQGTQVTVSSGGGGSEVQLVESGGGLVQAGGSLRLSCAASGRPFSNYAMGWFRQAPGKEREFVAAISWSGGSTSYADSVKGRFTISRDNAKNTVYLQMNSPKPEDTAIYYCAAQFSGADYGFGRLGIRGYEYDYWGQGTQVTVSS
Take B1: in experiment [1], the “EC50, Vγ9Vδ2 T cell mediated cytotoxicity of LNCaP cells, 24 h, E:T 1:1” value turned out to be 1.6 pM and the “EC50 for cytotoxicity, LNCaP target cells, 24 h, 7AAD in FACS, E:T 1:1” value (“EC50 for cytotoxicity” for short) is 1.9 pM.

B2: LV1050-5C8var1 (bispecific antibody)
chain: EVQLVESGGGLVQPGGSLRLSCAASRFMISEYSMHWVRQAPGKGLEWVSTINPAGTTDYADSVKGRFTISRDNAKNTLYLQMNSLRAEDTAVYYCDGYGYRGQGTQVTVSSGGGGSEVQLLESGGGSVQPGGSLRLSCAASGRPFSNYAMSWFRQAPGKEREFVSAISWSGGSTSYADSVKGRFTISRDNSKNTLYLQMNSLRAEDTAVYYCAAQFSGADYGFGRLGIRGYEYDYWGQGTQVTVSSAAAEPEA
B2: in experiment [1], the “EC50, Vγ9Vδ2 T cell mediated cytotoxicity of LNCaP cells, 24 h, E:T 1:1” value amounted to 2.2 pM and the “EC50 for cytotoxicity” value is 1.9 pM.

B3: LV1050-Fc x 5C8var1-Fc (bispecific antibody, V domains shown)
V domain 1: EVQLVESGGGLVQPGGSLRLSCAASRFMISEYSMHWVRQAPGKGLEWVSTINPAGTTDYADSVKGRFTISRDNAKNTLYLQMNSLRAEDTAVYYCDGYGYRGQGTQVTVSS
V domain 2: EVQLLESGGGSVQPGGSLRLSCAASGRPFSNYAMSWFRQAPGKEREFVSAISWSGGSTSYADSVKGRFTISRDNSKNTLYLQMNSLRAEDTAVYYCAAQFSGADYGFGRLGIRGYEYDYWGQGTQVTVSS
notes: Knob-into-hole heterodimer of two VHH-Fc chains; also called 5C8var1-Fc x LV1050-Fc; lead bispecific antibody
Consider B3, for which, in experiment [1], the “EC50, Vγ9Vδ2 T cell mediated cytotoxicity of LNCaP cells, 24 h, E:T 1:1” value worked out at 10.5 pM and the “EC50 for cytotoxicity” value was found to be 9.4 pM. In experiment [2], the “Mean EC50, cytotoxicity after 24 hours (CytoTox-Glo), 22Rv1, E:T 1:1” value worked out at 0.013 nM; the “Mean EC50, cytotoxicity after 24 hours (CytoTox-Glo), LNCaP, E:T 1:1” value worked out at 0.017 nM; the “Mean EC50, cytotoxicity after 24 hours (CytoTox-Glo), VCaP, E:T 1:1” value turned out to be 0.015 nM; the “Mean EC50, degranulation (CD107a) after 4 hours, 22Rv1, E:T 1:1” value stood at 0.029 nM. In addition, in experiment [2], the “Mean EC50, degranulation (CD107a) after 4 hours, LNCaP, E:T 1:1” value was found to be 0.016 nM and the “Mean EC50, degranulation (CD107a) after 4 hours, VCaP, E:T 1:1” value is 0.028 nM. In experiment [3], the “Mean EC50, Vγ9Vδ2-T cell cytotoxicity of LNCaP cells, 24 h, E:T 1:1” value amounted to 17 pM and the “Mean EC50, Vγ9Vδ2-T cell cytotoxicity of LNCaP cells, 24 h, E:T 1:10” value is 9.9 pM. The molecule also showed an EC50 in experiment [4] of 7.3 nM. Further, in experiment [5], the equilibrium dissociation constant (Kd) worked out at 31.6 nM.

In general, EC50 refers to the concentration giving half of the maximal effect. Lower therefore signals greater potency. What is called Kd is the constant that tells how readily two partners part at equilibrium.
